# According to patent US20040071656A1, “Modulation of heat-shock-protein-based immunotherapies” (priority 2001, published 2004):
# B1: Hip: Hsp70 cochaperone that stabilizes the ADP-state of Hsp70, recombinant His-tagged (protein, UniProt P50502 1-369, looked up)
# Hsc70-interacting protein: MDPRKVNELRAFVKMCKQDPSVLHTEEMRFLREWVESMGGKVPPATQKAKSEENTKEEKPDSKKVEEDLKADEPSSEESDLEIDKEGVIEPDTDAPQEMGDENAEITEEMMDQANDKKVAAIEALNDGELQKAIDLFTDAIKLNPRLAILYAKRASVFVKLQKPNAAIRDCDRAIEINPDSAQPYKWRGKAHRLLGHWEEAAHDLALACKLDYDEDASAMLKEVQPRAQKIAEHRRKYERKREEREIKERIERVKKAREEHERAQREEEARRQSGAQYGSFPGGFPGGMPGNFPGGMPGMGGGMPGMAGMPGLNEILSDPEVLAAMQDPEVMVAFQDVAQNPANMSKYQSNPKVMNLISKLSAKFGGQA
# modifications: His tag
# notes: Hsp70 cochaperone that stabilizes the ADP-state of Hsp70, recombinant His-tagged
# Target: T1, exoplasmic domain of human CD40 (GST-CD40) (Homo sapiens, UniProt P25942)
# T1 construct: The cDNA for the exoplasmic domain of CD40 (amino acids 20-212); made in house; host or cells: E. coli, pGEX-2T
# Test: GST-CD40 binding and competition assay with recombinant Hsp70 and its domains
# Conditions: ADP, 5-fold molar excess of competitor
# Description: For binding assays with recombinant Hsp70 and its domains, 3 μM His6-Hsp70 or its His6-tagged domains were incubated with 2 mM ATP, 2 mM ADP or 2 mM ADP and 28 μM peptide C in 50 μl binding buffer (10 mM MOPS/KOH, pH 7.2, 150 mM KCl and 3 mM MgCl2) for 30 min at 37° C. In competition experiments binding was probed with either a 10-fold excess of Hsp70, the two domains, or DnaK, or with a 5-fold excess of Hip or Bag 1 for 10 min at 0° C. To this end, Hsp70, N70, C70 and DnaK were preincubated with ADP, ATP and peptide C as described above. […] 10 μl of the eluates were subjected to SDS-PAGE and analyzed by immunoblotting using a Penta-His-antibody (Quiagen). Blot signals were quantified by Quantity One (Biorad).
# Details for FIG. 3. […] Thereafter samples were affinity purified on glutathione-Sepharose as outlined in Experimental Procedures, subjected to SDS-PAGE and analyzed by immunoblotting with antibodies directed against Hsc70 and Hsp70 (upper lanes), and against Hsp90 (lower lanes). […] After affinity purification samples were analyzed by immunoblotting as described in A, using antibodies directed against the His6-tag. […] Protein bound to Hsp70 was analyzed by affinity purification on Ni-NTA-agarose and immunoblotting with antibodies directed against CD40. […]
# Details for FIG. 5. […] The lower panel is a quantitation of the data. […]
# T1 sequence (P25942 20-212): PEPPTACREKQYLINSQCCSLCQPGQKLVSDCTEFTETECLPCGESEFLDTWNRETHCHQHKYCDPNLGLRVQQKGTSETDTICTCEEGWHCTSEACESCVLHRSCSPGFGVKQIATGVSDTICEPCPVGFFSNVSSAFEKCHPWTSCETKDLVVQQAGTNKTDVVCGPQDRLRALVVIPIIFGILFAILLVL
molecule,measurement,value
B1,competition for the binding of full-length Hsp70 to CD40,acted as an effective competitor of the interaction
